The target in the assay is NA of B/New York/PV00094/17 (Y), on purified virus (Influenza B virus B/New York/PV00094/17).

B1: 2H09 monoclonal antibody (BNA-mAb) (antibody, V domains shown)
VH: EVQLVESGGGLVQPGGSLRLSCAASGVTLDNYWVHWVRQVPGKGLVWVSRINADGTSKTYADSVKGRFTISRDTTRNTLFLQMNSLRGDDTALYFCARGGLYSSDAFDVWGQGTMVTVSS
VL: QSALTQPPSASGSPGQSVTISCTGTSWDVGRYNHVSWYQHHPGKAHKLIIYEVNRRPSGVPDRFSGSKSANTASLTVSGLQAEDEADYYCSSYTGNNVAVFGGGTKLTVL
Turning to B1, the percent competition amounted to 90%.

B2: 3C01 monoclonal antibody (BNA-mAb) (antibody, V domains shown)
VH: EVQLVESGGGLVQPGGSLRLSCAASGFPFSHYYMHWVRRAPGKGLVWVSRIYSDGTSSSYGDSVKGRFTISRDNAKNILYLQMNSLRAEDSATYYCCRGGYYSLDGFDFWGQGTMVTVSS
VL: DIQMTQSPLSLSVSEGDRVTITCRASQGIGNDLGWYQLKPGKAPKRLIYGASSLQSGVPSRFSGSGSGTEFTLTISSLQPEDFATYFCLQHSSFPYTFGQGTKVEIK
Molecule B2 gave a percent competition of 90%.

Values taken from patent US20230077716A1.
